From article PMC5836121 (2017)
Blank lines part the entries; values can stand above or below the binder they belong to.

Columns and labels:
225-3 miniprotein = 225-3 miniprotein (fluorescein (N-(5-fluoresceinyl)maleimide) in fluorescence polarisation; biotin-PEG2-maleimide where immobilised in SPR; unlabelled otherwise); test: FP; GppNHp
KRas(WT) = KRas(WT) (human, UniProt P01116 1-187, 15N-labelled in NMR; biotin on the yBBr tag (by Sfp) in SPR); test: SPR; GppNHp

Kd (225-3 miniprotein): > 10 µM
B1: RalA (natural protein)
chain: MAANKPKGQNSLALHKVIMVGSGGVGKSALTLQFMYDEFVEDYEPTKADSYRKKVVLDGEEVQIDILDTAGQEDYAAIRDNYFRSGEGFLCVFSITEMESFAATADFREQILRVKEDENVPFLLVGNKSDLEDKRQVSVEEAKNRAEQWNVNYVETSAKTRANVDKVFFDLMREIRARKMEDSKEKNGKKKRKSLAKRIRERCCIL
modifications: biotinylated in SPR; unlabelled in fluorescence polarisation

Kd (KRas(WT)): 0.09 nM
B2: 225-15a/b heterodimeric miniprotein (designed binder)
chain 1: SGPRRPRCPGDQASLEELHEYWARLWNYLYRVAH
chain 2: GGGPRRPRCPGDNASIKQLHAYWQRLYAYLAAVA
modifications: oxidized dimer (disulfide with the other chain) | oxidized dimer (disulfide with the other chain)

Kd (225-3 miniprotein): > 10 µM
B3: Rab25 (natural protein)
chain: MGNGTEEDYNFVFKVVLIGESGVGKTNLLSRFTRNEFSHDSRTTIGVEFSTRTVMLGTAAVKAQIWDTAGLERYRAITSAYYRGAVGALLVFDLTKHQTYAVVERWLKELYDHAEATIVVMLVGNKSDLSQAREVPTEEARMFAENNGLLFLETSALDSTNVELAFETVLKEIFAKVSKQRQNSIRTNAITLGSAQAGQEPGPGEKRACCISL
modifications: biotinylated in SPR; unlabelled in fluorescence polarisation
